Conditions: Hevea brasiliensis, Thermal, DSC, glycine 0.05 M, reversible: yes (~75%), whole UniProt chain shown

B1: Pro-hevein wild type, P02877 (protein)
chain: MNIFIVVLLCLTGVAIAEQCGRQAGGKLCPNNLCCSQWGWCGSTDEYCSPDHNCQSNCKDSGEGVGGGSASNVLATYHLYNSQDHGWDLNAASAYCSTWDANKPYSWRSKYGWTAFCGPVGAHGQSSCGKCLSVTNTGTGAKTTVRIVDQCSNGGLDLDVNVFRQLDTDGKGYERGHITVNYQFVDCGDSFNPLFSVMKSSVIN
pH 1.82
  Tm: 73 °C
  heat capacity change of unfolding: 0.37 kcal/mol/K
  unfolding enthalpy (calorimetric): 29 kcal/mol
  unfolding enthalpy (van 't Hoff): 43.4 kcal/mol
pH 2.1
  Tm: 74.2 °C
  heat capacity change of unfolding: 0.44 kcal/mol/K
  unfolding enthalpy (calorimetric): 28.6 kcal/mol
  unfolding enthalpy (van 't Hoff): 41.6 kcal/mol
pH 2.92
  Tm: 77.8 °C
  heat capacity change of unfolding: 0.5 kcal/mol/K
  unfolding enthalpy (calorimetric): 31 kcal/mol
  unfolding enthalpy (van 't Hoff): 41.5 kcal/mol
pH 3.2
  Tm: 83.6 °C
  heat capacity change of unfolding: 0.62 kcal/mol/K
  unfolding enthalpy (calorimetric): 34 kcal/mol
  unfolding enthalpy (van 't Hoff): 41.8 kcal/mol
pH 3.54
  Tm: 84.5 °C
  heat capacity change of unfolding: 0.44 kcal/mol/K
  unfolding enthalpy (calorimetric): 36.5 kcal/mol
  unfolding enthalpy (van 't Hoff): 41.6 kcal/mol
pH 3.67
  Tm: 90.1 °C
  heat capacity change of unfolding: 0.45 kcal/mol/K
  unfolding enthalpy (calorimetric): 38 kcal/mol
  unfolding enthalpy (van 't Hoff): 42.5 kcal/mol
